Source: patent publication US20190322748A1 (Hoffmann-La Roche, published 2019)
Several values for one entry are separate records, joined by “and”; a condition that tells them apart may be missing. Identical values can stand only once. Like-named read-outs stand apart in the source and are kept apart here. Values belong to the binder of their own block, whether it stands above or below them.

Columns and labels:
[1] = biological target: T1, monomeric cyno Tim3-ECD (cynomolgus, UniProt A0A2K5U3G7 22-195); test: SPR BIAcore B4000, Ab captured on anti-mouse IgG, 25 C
T1 construct: extracellular domain; also called cyTim3; cynomolgus Tim3
T1 sequence: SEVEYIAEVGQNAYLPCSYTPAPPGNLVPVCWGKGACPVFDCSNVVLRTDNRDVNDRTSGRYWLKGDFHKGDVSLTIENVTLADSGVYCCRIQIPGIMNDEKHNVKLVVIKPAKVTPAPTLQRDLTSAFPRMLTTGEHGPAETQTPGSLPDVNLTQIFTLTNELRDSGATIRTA

[2] = biological target: T2, full-length human PD1 on cells (CHO-K1 stably transfected with plasmid 15311_hPD1-fl_pUC_Neo) (human, UniProt Q15116 25-288); test: cell-based or functional assay
[3] = biological target: T3, biotinylated TIM3-ECD-AviHis (human, UniProt Q8TDQ0 22-202, biotinylated, site not stated); test: ELISA on coated biotinylated TIM3-ECD-AviHis
T3 construct: also called huTIM3; Hu TIM3

[4] = biological target: T2, full-length human PD1 on cells (CHO-K1 …); test: cell-based or functional assay; remark: listed apart in the source
[5] = biological target: T4, Tim3-CLIP (on transiently transfected HEK293 cells) (human, CLIP-tag labelled with Clip-Red); test: cell-based TR-FRET on SNAP-tagged PD1 / CLIP-tagged TIM3 HEK293 cells, 1 h at 4 C; signal needs both receptors bound at once
T4 construct: The plasmid encodes residues 1-202 including the signal peptide; also called CLIP-tagged TIM3

[6] = biological target: T5, biotinylated PD1-ECD-AviHis (human, UniProt Q15116 25-170, biotinylated, site not stated); test: ELISA on coated biotinylated PD1-ECD-AviHis
T5 construct: also called huPD1; hu PD1

[7] = biological target: T2, full-length human PD1 on cells (CHO-K1 …); test: cell-based or functional assay; remark: listed apart in the source
[8] = biological target: T6, human PD1-ECD (human, UniProt Q15116 25-170); test: SPR; row head 'Affinity KD 37°C [nM] *)', second of two values (equals the 25 C value of Table 9); second of the two values in the cell; footnote *) not given, so the difference from the first value is not told
T6 construct: SPR analyte; also called hu PD1-ECD

[9] = biological target: T2, full-length human PD1 on cells (CHO-K1 …); test: cell-based or functional assay; remark: listed apart in the source
[10] = biological target: T5, biotinylated PD1-ECD-AviHis; test: ELISA on coated biotinylated PD1-ECD-AviHis; remark: listed apart in the source
[11] = biological target: T5, biotinylated PD1-ECD-AviHis; test: ligand replacing ELISA on coated PD1-ECD-AviHis; row head 'IC50 PD-L1, 2', competitor not told apart; blocking of ligand binding; head says 'PD-L1, 2', competitor not told apart
[12] = biological target: T6, human PD1-ECD; test: SPR; row head 'Affinity KD 37°C [nM] *)', first of two values, footnote not explained; first of the two values in the cell; row head KD 37°C, footnote *) not given
[13] = biological target: T6, human PD1-ECD; test: SPR Biacore T200, Ab captured on anti-human IgG, 25 C
[14] = biological target: T7, monomeric human Tim3-ECD (human, UniProt Q8TDQ0 22-202); test: SPR, Ab captured, monomer Tim3
T7 construct: SPR analyte; also called huTim3; hu Tim3-ECD

[15] = biological target: T8, huFc fused dimeric human Tim3-ECD (human, UniProt Q8TDQ0 22-202); test: SPR, Ab captured, dimer Tim3 (avidity)
T8 construct: also called huTim3Fc; Fc-tagged human Tim3-ECD dimer

[16] = biological target: T9, Tim3-ECD-His-Biotin (human, UniProt Q8TDQ0 22-202, biotinylated with BirA Ligase, site not stated); test: ELISA on human Tim3 (values in relation to the samples max value)
T9 construct: also called human Tim3 (ELISA); Biochem Human

[17] = biological target: T10, full-length human Tim3 on cells (CHO-K1 stably transfected with plasmid 15312_hTIM3-fl_pUC_Neo) (human, UniProt Q8TDQ0 22-301); test: cellular ELISA on CHO-TIM3
T10 construct: Also used as the target of the MLR read-outs (native TIM-3); also called CHO-Tim3; CHO-TIM3

[18] = biological target: T9, Tim3-ECD-His-Biotin; test: ELISA on human Tim3
[19] = biological target: T10, full-length human Tim3 on cells (CHO-K1 …); test: cellular ELISA on CHO-TIM3 (values in relation to the samples max value)
[20] = biological target: T9, Tim3-ECD-His-Biotin; test: ELISA on streptavidin-captured Tim3-ECD-His-Biotin
[21] = biological target: T7, monomeric human Tim3-ECD; test: SPR BIAcore B4000, Ab captured on anti-mouse IgG, 25 C
[22] = biological target: T10, full-length human Tim3 on cells (CHO-K1 …); test: cell ELISA on CHO-K1 cells with full-length human Tim3
[23] = biological target: T8, huFc fused dimeric human Tim3-ECD; test: SPR BIAcore B4000, Ab captured on anti-mouse IgG, 25 C, dimeric antigen (avidity)

Kd [1]: 28.4 nM
B1: Tim3_0022 (antibody, V domains shown)
VH: EVQLQESGPSLVKPSQTLSLTCSVTGDSIASAYWNWIRKFPGNKLEYMGYINYSGSTYYNPSLKSRISITRDTSQNQYYLQLNSVTTEDTATYYCVTGDYFDYWGRGTTLTVSS
VL: DIQMTQSPSSLSAYLGGKVTITCKARQDVRKNIGWYQHKPGKGPRLLIWYTSTLQSGIPSRFSGSGSGRDYSFNINNLEPEDIATYYCLQYDNLPFTFGTGTKLEIR

EC50 of IFN-gamma secretion in MLR, donors D2 + D6 [2]: 7.7 nM | binding result [3]: no binding | EC50 of IFN-gamma secretion in MLR, donors D1 + D3 [4]: 5.7 nM | EC50 of IFN-gamma secretion in MLR, donors D2 + D4 [4]: 5.7 nM | binding result [5]: no binding (tested: about 20 nM) | EC50 [6]: 0.12 nM | EC50 of IFN-gamma secretion in MLR, donors D2 + D6 [7]: 6 nM | Kd [8]: 0.8 nM | EC50 of IFN-gamma secretion in MLR, donors D2 + D6 [9]: 6.5 nM | EC50 [10]: 0.2 nM | IC50 [11]: 1.35 nM | Kd [12]: 2 nM | Kd [13]: 0.8 nM | koff [13]: 0.000307 s⁻¹ | kon [13]: 386000 M⁻¹ s⁻¹
B2: chimeric PD1-0103 (antibody, human IgG1, V domains shown)
VH: EVILVESGGGLVKPGGSLKLSCAASGFSFSSYTMSWVRQTPEKRLDWVATISGGGRDIYYPDSVKGRFTISRDNAKNTLYLEMSSLMSEDTALYYCVLLTGRVYFALDSWGQGTSVTVSS
VL: KIVLTQSPASLPVSLGQRATISCRASESVDTSDNSFIHWYQQRPGQSPKLLIYRSSTLESGVPARFSGSGSRTDFTLTIDPVEADDVATYYCQQNYDVPWTFGGGTKLEIK

Kd [14]: 3.4 nM | Kd [15]: 1.1 nM | EC50 [16]: 0.0151 µg/mL | Inflexion point [17]: 29.4 ng/mL | Inflexion point [18]: 15.3 ng/mL | EC50 [19]: 0.0264 µg/mL | EC50 [20]: 0.56 nM and 0.094 µg/mL | Kd [21]: 3.4 nM | EC50 [22]: 0.52 nM and 0.087 µg/mL | Kd [23]: 1.11 nM
B3: Tim3_0016 variant (0018) (antibody, V domains shown)
VH: QVTLKESGPGILQPSQTLSLTCSFSGFSLSTSGMSVGWIRQPSGKGLEWLAHIWLNDDVFFNPALKRRLTISKDTSNNQVFLQIASVVTADTATYYCVRANGYLYALDYWGQGISVTVSS
VL: QIVLTQSPAIMSASPGQKVTITCSASSSVNYTQWYQQKLGSSPKLWIYDAFKLAPGVPARFSGSGTGTSYSLTISSMEAEDAASYFCHQWSSYPWTFGGGTKLEIK
notes: Mouse monoclonal antibody; also called Tim3_0018; Tim3 0018
